This is an account of results in patent publication US20200199241A1 (Chugai, published 2020).

First the molecules themselves.
B1: IgG1-F1015 (antibody)
heavy: QVQLQESGPGLVKPSETLSLTCAVSGHSISHDHAWSWVRQPPGEGLEWIGFISYSGITNYNPSLQGRVTISRDNSKNTLYLQMNSLRAEDTAVYYCARSLARTTAMDYWGEGTLVTVSSASTKGPSVFPLAPSSKSTSGGTAALGCLVKDYFPEPVTVSWNSGALTSGVHTFPAVLQSSGLYSLSSVVTVPSSSLGTQTYICNVNHKPSNTKVDKKVEPKSCDKTHTCPPCPAPELRGGPKVFLFPPKPKDTLYISRTPEVTCVVVDVSHEDPEVKFNWYVDGVEVHNAKTKPREEQYNSTYRVVSVLQPLHADWLNGKEYKCKVSNKALPAPIEKTISKAKGQPREPQVYTLPPSRDELTKNQVSLTCLVKGFYPSDIAVEWESNGQPENNYKTTPPVLDSDGSFFLYSKLTVDKSRWQQGNVFSCSVMHEALHYHYTQKSLSLSP
light: not shown
notes: EU numbering; copies: 2 + 2
B2: IgG1-F1044 (antibody)
heavy: B1 heavy with R237K, T252V
light: not shown
notes: EU numbering; copies: 2 + 2
B3: IgG1-F1081 (antibody)
heavy: B1 heavy with R237L, K241S, Q309T, P310V, A313Q, Y438N, Q440T
light: not shown
notes: EU numbering; copies: 2 + 2
B4: IgG1-F1037 (antibody)
heavy: B1 heavy with R237K, P310V, M430I, Y438V
light: not shown
notes: EU numbering; copies: 2 + 2
B5: IgG1-F1070 (antibody)
heavy: B1 heavy with R237L, K241S, Q309T, P310V, A313Q, Y438V, Q440R
light: not shown
notes: EU numbering; copies: 2 + 2
B6: IgG1-F1097 (antibody)
heavy: B1 heavy with R237L, K241S, Q309T, P310V, A313Q, G387N, P389S
light: not shown
notes: EU numbering; copies: 2 + 2
B7: IgG1-F1029 (antibody)
heavy: B1 heavy with R237L, K241S, T252V, P310V, I334E, Y438V
light: not shown
notes: EU numbering; copies: 2 + 2
B8: IgG1-F1043 (antibody)
heavy: B1 heavy with R237K, T252V, Q309T, A313Q
light: not shown
notes: EU numbering; copies: 2 + 2
B9: IgG1-F1036 (antibody)
heavy: B1 heavy with R237K, N288E, P310V, Y438V
light: not shown
notes: EU numbering; copies: 2 + 2
B10: IgG1-F1046 (antibody)
heavy: B1 heavy with R237K, T252V, N288E, Y438V
light: not shown
notes: EU numbering; copies: 2 + 2
B11: IgG1-F1026 (antibody)
heavy: B1 heavy with R237L, K241S, Q309A, P310V, A313H, Y438V
light: not shown
notes: EU numbering; copies: 2 + 2
B12: IgG1-F1027 (antibody)
heavy: B1 heavy with Q309A, P310V, A313H, Y438V
light: not shown
notes: EU numbering; copies: 2 + 2
B13: IgG1-F1061 (antibody)
heavy: B1 heavy with R237L, K241S, Q309T, P310V, A313Q, P389E, Y438V
light: not shown
notes: EU numbering; copies: 2 + 2
B14: IgG1-F1035 (antibody)
heavy: B1 heavy with R237K, Y438V
light: not shown
notes: EU numbering; copies: 2 + 2
B15: IgG1-F1080 (antibody)
heavy: B1 heavy with R237L, K241S, Q309T, P310V, A313Q, S426N
light: not shown
notes: EU numbering; copies: 2 + 2
B16: IgG1-F1021 (antibody)
heavy: B1 heavy with R237L, P240D, K241S, T252V, Q309T, P310V, A313Q, N327A
light: not shown
notes: EU numbering; copies: 2 + 2
B17: IgG1-F1023 (antibody)
heavy: B1 heavy with R237L, K241D, T252V, P310V, Y438V
light: not shown
notes: EU numbering; copies: 2 + 2
B18: IgG1-F1062 (antibody)
heavy: B1 heavy with R237L, K241S, Q309T, P310V, A313Q, P389R, Y438V
light: not shown
notes: EU numbering; copies: 2 + 2
B19: IgG1-F1034 (antibody)
heavy: B1 heavy with R237K, Q309T, A313Q, Y438V
light: not shown
notes: EU numbering; copies: 2 + 2
B20: IgG1-F1066 (antibody)
heavy: B1 heavy with R237L, K241S, Q309T, P310V, A313Q, V424S, Y438V
light: not shown
notes: EU numbering; copies: 2 + 2
B21: IgG1-F1064 (antibody)
heavy: B1 heavy with R237L, K241S, Q309T, P310V, A313Q, V424E, Y438V
light: not shown
notes: EU numbering; copies: 2 + 2
B22: IgG1-F1082 (antibody)
heavy: B1 heavy with R237L, K241S, Q309T, P310V, A313Q, Q440N
light: not shown
notes: EU numbering; copies: 2 + 2
B23: IgG1-F1075 (antibody)
heavy: B1 heavy with R237L, K241S, Q309T, P310V, A313Q, K328D, L330Y, Y438V
light: not shown
notes: EU numbering; copies: 2 + 2
B24: IgG1-F1048 (antibody)
heavy: B1 heavy with R237K, Q309A, P310V, A313H, Y438V
light: not shown
notes: EU numbering; copies: 2 + 2
B25: IgG1-F1067 (antibody)
heavy: B1 heavy with R237L, K241S, Q309T, P310V, A313Q, S426E, Y438V
light: not shown
notes: EU numbering; copies: 2 + 2
B26: IgG1-F1053 (antibody)
heavy: B1 heavy with T252V, P310V, Y438V
light: not shown
notes: EU numbering; copies: 2 + 2
B27: IgG1-F1016 (antibody)
heavy: B1 heavy with R237L, K241S, T252V, N288E, Y438V
light: not shown
notes: EU numbering; copies: 2 + 2
B28: IgG1-F1024 (antibody)
heavy: B1 heavy with R237L, K241S, T252V, P310V, K328D, L330Y, Y438V
light: not shown
notes: EU numbering; copies: 2 + 2
B29: IgG1-F1083 (antibody)
heavy: B1 heavy with R237L, K241S, Q309T, P310V, A313Q, S442N
light: not shown
notes: EU numbering; copies: 2 + 2
B30: IgG1-F1068 (antibody)
heavy: B1 heavy with R237L, K241S, Q309T, P310V, A313Q, S426R, Y438V
light: not shown
notes: EU numbering; copies: 2 + 2
B31: IgG1-F1074 (antibody)
heavy: B1 heavy with R237L, K241D, Q309T, P310V, A313Q, Y438V
light: not shown
notes: EU numbering; copies: 2 + 2
B32: IgG1-F1047 (antibody)
heavy: B1 heavy with R237K, N288E, Y438V
light: not shown
notes: EU numbering; copies: 2 + 2
B33: IgG1-F1028 (antibody)
heavy: B1 heavy with R237L, G238A, K241D, T252V, P310V, Y438V
light: not shown
notes: EU numbering; copies: 2 + 2
B34: IgG1-F1018 (antibody)
heavy: B1 heavy with N288E, Y438V
light: not shown
notes: EU numbering; copies: 2 + 2
B35: IgG1-F1077 (antibody)
heavy: B1 heavy with R237L, K241S, K250N, Q309T, P310V, A313Q
light: not shown
notes: EU numbering; copies: 2 + 2
B36: IgG1-F1042 (antibody)
heavy: B1 heavy with R237K, Q309A, P310V, A313H
light: not shown
notes: EU numbering; copies: 2 + 2
B37: IgG1-F1096 (antibody)
heavy: B1 heavy with R237L, K241S, Q309T, P310V, A313Q, Q388T
light: not shown
notes: EU numbering; copies: 2 + 2
B38: IgG1-F1069 (antibody)
heavy: B1 heavy with R237L, K241S, Q309T, P310V, A313Q, Y438V, Q440E
light: not shown
notes: EU numbering; copies: 2 + 2
B39: IgG1-F1094 (antibody)
heavy: B1 heavy with R237L, K241S, Q309T, P310V, A313Q, S444N
light: not shown
notes: EU numbering; copies: 2 + 2
B40: IgG1-F1025 (antibody)
heavy: B1 heavy with R237L, K241D, T252V, P310V, K328D, L330Y, Y438V
light: not shown
notes: EU numbering; copies: 2 + 2
B41: IgG1-F1059 (antibody)
heavy: B1 heavy with R237L, K241S, Q309T, P310V, A313Q, Q388R, Y438V
light: not shown
notes: EU numbering; copies: 2 + 2
B42: IgG1-F1095 (antibody)
heavy: B1 heavy with R237L, K241S, Q309T, P310V, A313Q, S385N, G387S
light: not shown
notes: EU numbering; copies: 2 + 2
B43: IgG1-F1051 (antibody)
heavy: B1 heavy with T252V, N288E, M430I, Y438V
light: not shown
notes: EU numbering; copies: 2 + 2
B44: IgG1-F1063 (antibody)
heavy: B1 heavy with R237L, K241S, Q309T, P310V, A313Q, P389S, Y438V
light: not shown
notes: EU numbering; copies: 2 + 2
B45: IgG1-F1038 (antibody)
heavy: B1 heavy with R237K, P240D, Q309T, P310V, A313Q
light: not shown
notes: EU numbering; copies: 2 + 2
B46: IgG1-F1058 (antibody)
heavy: B1 heavy with R237L, K241S, Q309T, P310V, A313Q, Q388E, Y438V
light: not shown
notes: EU numbering; copies: 2 + 2
B47: IgG1-F1041 (antibody)
heavy: B1 heavy with R237K, T252V, Y438V
light: not shown
notes: EU numbering; copies: 2 + 2
B48: IgG1-F1052 (antibody)
heavy: B1 heavy with N288E, M430I, Y438V
light: not shown
notes: EU numbering; copies: 2 + 2
B49: IgG1-F1073 (antibody)
heavy: B1 heavy with R237L, K241S, Q309T, P310V, A313Q, Y438V, S442R
light: not shown
notes: EU numbering; copies: 2 + 2
B50: IgG1-F1050 (antibody)
heavy: B1 heavy with R237L, K241S, T252V, N288E, M430I, Y438V
light: not shown
notes: EU numbering; copies: 2 + 2
B51: IgG1-F1020 (antibody)
heavy: B1 heavy with R237L, P240D, K241S, T252V, P310V, N327G
light: not shown
notes: EU numbering; copies: 2 + 2
B52: IgG1-F1032 (antibody)
heavy: B1 heavy with R237L, P240D, K241S, T252V, P310V, N327G, Y438V
light: not shown
notes: EU numbering; copies: 2 + 2
B53: IgG1-F1040 (antibody)
heavy: B1 heavy with R237K, T252V, Q309T, P310V, A313Q, Y438V
light: not shown
notes: EU numbering; copies: 2 + 2
B54: IgG1-F1065 (antibody)
heavy: B1 heavy with R237L, K241S, Q309T, P310V, A313Q, V424R, Y438V
light: not shown
notes: EU numbering; copies: 2 + 2
B55: IgG1-F1045 (antibody)
heavy: B1 heavy with R237K
light: not shown
notes: EU numbering; copies: 2 + 2

Where a chain is given by its changes, count along the chain named.

T1 sequence (chain, as listed by the source limits assumed, chain 1 of 2): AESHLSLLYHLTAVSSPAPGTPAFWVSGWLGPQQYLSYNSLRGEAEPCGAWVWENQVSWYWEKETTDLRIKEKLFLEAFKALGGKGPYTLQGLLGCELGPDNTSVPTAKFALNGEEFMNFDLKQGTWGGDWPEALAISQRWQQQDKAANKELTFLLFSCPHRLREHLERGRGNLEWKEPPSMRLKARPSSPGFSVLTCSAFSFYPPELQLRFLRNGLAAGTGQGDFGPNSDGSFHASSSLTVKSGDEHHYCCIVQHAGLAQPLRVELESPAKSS
T1 sequence (P61769 21-119 limits assumed, chain 2 of 2): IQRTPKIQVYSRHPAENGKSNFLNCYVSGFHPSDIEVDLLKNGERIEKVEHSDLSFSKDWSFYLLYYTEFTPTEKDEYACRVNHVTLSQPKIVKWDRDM

This assay has as its target T1, soluble human FcRn complexed with β2-microglobulin (human, UniProt P61769 21-119, limits assumed).
T1 construct: also called hFcRn
The assay can be described thus: Biacore SPR, pH 7.0.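 Further: test antibodies captured on a Protein L chip with human FcRn flowed over as analyte, KD obtained as the ratio of dissociation to association rate constants.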
Protocol: A kinetic analysis of binding between human FcRn and the aforementioned antibodies was carried out using the BIACORE™ T100 or T200 surface plasmon resonance system (GE Healthcare). The antibodies being tested were captured on the CM4 Sensor Chip (GE Healthcare) on which a suitable amount of Protein L (ACTIGEN® protein (Alltech)) was suitably immobilized by amine coupling. Next, diluted human FcRn and a running buffer used as a blank were injected to allow the human FcRn to interact with the antibody captured on the sensor chip. A buffer consisting of 50 mmol/L sodium phosphate, 150 mmol/L NaCl and 0.05% (w/v) polysorbate 20 (Tween 20®) (pH 7.0 or pH 7.4) was used for the running buffer, and each buffer was also used to dilute the human FcRn. 10 mmol/L glycine-HCl (pH 1.5) was used to regenerate the sensor chip. All measurements of binding were carried out at 25° C. The KD(M) of each antibody to human FcRn was calculated based on kinetics parameters, i.e., the association rate constant ka (1/Ms) and the dissociation rate constant kd (1/s) calculated from a sensorgram obtained by the measurement. The BIACORE™ T100 or T200 Evaluation Software (GE Healthcare) was used to calculate each parameter.
B1 returned a Kd of 22 nM.
Consider B2, for which binding was put at a Kd of 35 nM.
Molecule B3 came in with a Kd of 620 nM.
Molecule B4 returned a Kd of 61 nM.
On to B5, for which the Kd came out at 173 nM.
B6 yielded a Kd of 282 nM.
On to B7, for which binding was characterised by a dissociation constant (Kd) of 51 nM.
For B8, the Kd is 52 nM.
Molecule B9 yielded a Kd of 14 nM.
Consider B10, for which binding was put at a Kd of 4.5 nM.
Regarding B11, binding was put at a Kd of 84 nM.
For B12 the value was 86 nM.
For B13, the dissociation constant (Kd) came to 119 nM.
In the case of B14, the Kd came out at 10 nM.
For B15 the value was 319 nM; for B16, 330 nM; for B17, 44 nM.
B18 yielded a Kd of 120 nM.
B19 came in with a Kd of 15 nM.
B20: the Kd stood at 145 nM.
With B21 the figure was 132 nM; with B22, 276 nM.
With B23 the figure was 140 nM; with B24, 99 nM.
B25 gave a Kd of 126 nM.
Turning to B26, the equilibrium dissociation constant (Kd) came out at 42.3 nM.
In turn, B27 had a Kd of 3.8 nM.
B28 came in with a Kd of 40 nM.
As for B29, binding was put at a Kd of 345 nM.
Molecule B30 displayed a Kd of 169 nM.
For B31 the value was 132 nM; for B32, 3.4 nM; for B33, 46 nM.
In turn, B34 yielded a Kd of 3.2 nM.
With B35 the figure was 2030 nM; with B36, 200 nM; with B37, 272 nM.
As for B38, binding was put at a Kd of 139 nM.
On to B39, for which the affinity, expressed as Kd, was 260 nM.
Take B40: binding was put at a Kd of 36 nM.
For B41, binding was characterised by a dissociation constant (Kd) of 139 nM.
With B42 the figure was 286 nM.
The molecule B43 registered a Kd of 3.9 nM.
In turn, B44 had an equilibrium dissociation constant (Kd) of 143 nM.
For B45 the value was 280 nM; for B46, 131 nM.
Regarding B47, the Kd amounted to 14 nM.
For B48 the value was 3.2 nM; for B49, 134 nM; for B50, 3.5 nM.
With B51 the figure was 85 nM.
As to B52, the Kd was 43 nM.
For B53, the Kd came to 200 nM.
For B54, binding was characterised by a dissociation constant (Kd) of 138 nM.
With B55 the figure was 25 nM.
